Assay [1] deals with Coh (lacking ELP linker and ddFLN4 domains), ITC construct (R. champanellensis). In words: ITC; 126 uM XMod-Doc injected (27 x 10 uL) into 16.1 uM Coh in the cell; 25 °C; TBS-Ca buffer (25 mM Tris, 72 mM NaCl, 1 mM CaCl2, pH 7.2). For orientation: In ITC the heat of successive injections is recorded.
For assay [2], the target named is Coh-ddFLN4-ELP-HIS-ybbr, AFM construct (R. champanellensis). Briefly: AFM single-molecule force spectroscopy (AFM-SMFS); Coh construct covalently on the cantilever tip by its C-terminal ybbR tag, XMod-Doc construct covalently on the cover glass by its N-terminal ybbR tag; 200 ms dwell; constant pulling speed 100, 400, 1600, 6400 nm/s (mutants at 400 nm/s); TBS-Ca buffer; k0 from Bell-Evans or Dudko-Hummer-Szabo fits.

The target is the same in assay [3]. The description is as above. The source holds these as a separate data set.
The target of assay [4] is Avi-Coh (E154C)-HIS labelled with maleimide-Cy3b, smFRET construct (R. champanellensis). In words: FRET or BRET; single-molecule FRET in solution on a confocal microscope; labelled Coh (Cy3b) and XMod-Doc (AF647) mixed 1:1 at 1 uM, 1 min, diluted to 200 pM; 50 mM Tris pH 8, 100 mM NaCl, 1 mM CaCl2, Trolox, 1% glucose.

Where two headings read alike, the source gives them in different places.

By Kd is commonly meant the concentration at which binding is half-saturated. For orientation: stoichiometry N means a count of units in the complex or per binding partner. “XMod-Doc protein (lacking ELP linker and ddFLN4 domains), ITC construct (domain or fragment)”: in assay [1], the Kd was 1 nM and the stoichiometry N worked out at 1.
Turning to “ybbr-ELP-ddFLN4-XMod-Doc-HIS (wild type), AFM construct (domain or fragment)”, in assay [2], the k0 (BE), pathway 1, high force rupture (XMod intact) is 4.7e-08 s⁻¹; the k0 (BE), pathway 2, low force rupture after XMod unfold came out at 0.000743 s⁻¹; the k0 (BE), pathway 3, low force rupture (XMod intact) is 2.79e-05 s⁻¹; the k0 (DHS, υ = 0.5), pathway 1, high force rupture (XMod intact) was found to be 9.39e-05 s⁻¹. Moreover, in assay [2], the k0 (DHS, υ = 0.5), pathway 2, low force rupture after XMod unfold came to 0.0152 s⁻¹; the k0 (DHS, υ = 0.5), pathway 3, low force rupture (XMod intact) was 0.831 s⁻¹; the k0 (DHS, υ = 2/3), pathway 1, high force rupture (XMod intact) was found to be 0.000157 s⁻¹; the k0 (DHS, υ = 2/3), pathway 2, low force rupture after XMod unfold came out at 0.101 s⁻¹. In assay [2], the k0 (DHS, υ = 2/3), pathway 3, low force rupture (XMod intact) stood at 1.08 s⁻¹; the percentage of curves in pathway 3 (binding mode B), 400 nm/s came out at 19%; the percentage of curves in pathway 3 (binding mode B), all pulling speeds lay in the range of 17 to 22%; the rupture force, pathway 1 (XMod intact) was determined as 500 pN. In assay [2], this substance returned a rupture force, pathway 2 (after XMod unfolding) of 200 pN and a rupture force, pathway 3 (XMod intact) of 200 pN. Further, the rupture force, pathway 1 (XMod intact) in assay [3] was in the range of 500 to 600 pN.
Consider “ybbr-XMod-Doc (WT, S199AzF)-HIS labelled with DBCO-AF647, smFRET construct (domain or fragment)”, for which, in assay [4], the mean FRET efficiency, binding mode A is 0.71 and the mean FRET efficiency, binding mode B was 0.34.

(Values after article PMC7456326.)
